{
  "source": "patent US20160074509A1",
  "molecular_target": "OVA323-339 in the context of MHC class II (I-A^b) (mouse; chicken) (UniProt P14434)",
  "assay": "cell-based or functional assay",
  "data": [
    {"sequence": "T cell receptor of OT-II transgenic CD4+ T cells (TCR)", "values": [
      {"measurement": "proliferation of CFSE-labeled OT-II cells transferred into the footpad one week after immunization with OVA-KFE8D nanofibers (shift in CFSE intensity) (% of transferred cells)", "result": 60},
      {"measurement": "proliferation of adoptively transferred CFSE-labeled OT-II cells in mice immunized with OVA-Q11 or OVA in CFA (shift in CFSE intensity) (% of transferred cells)", "result": 95}
    ]}
  ]
}
